Measured values: patent publication US20240398767A1, “INHIBITORS OF THE MTDH-SND1 PROTEIN COMPLEX FOR CANCER THERAPY” (The Trustees of Princeton University, priority 2021, published 2024)

B4: SND1-NLuc (other)
chain: EQKLISEEDLVPTVQRGIIKMVLSGCAIIVRGQPRGGPPPERQINLSNIRAGNLARRAAATQPDAKDTPDEPWAFPAREFLRKKLIGKEVCFTIENKTPQGREYGMIYLGKDTNGENIAESLVAEGLATRREGMRANNPEQNRLSECEEQAKAAKKGMWSEGNGSHTIRDLKYTIENPRHFVDSHHQKPVNAIIEHVRDGSVVRALLLPDYYLVTVMLSGIKCPTFRREADGSETPEPFAAEAKFFTESRLLQRDVQIILESCHNQNILGTILHPNGNITELLLKEGFARCVDWSIAVYTRGAEKLRAAERFAKERRLRIWRDYVAPTANLDQKGGGSGGGSGGGSEDAKNIKKGPAPFYPLEDGTAGEQLHKAMKRYALVPGTIAFTDAHIEVNITYAEYFEMSVRLAEAMKRYGLNTNHRIVVCSENSLQFFMPVLGALFIGVAVAPANDIYNERELLNSMNISQPTVVFVSKKGLQKILNVQKKLPIIQKIIIMDSKTDYQGFQSMYTFVTSHLPPGFNEYDFVPESFDRDKTIALIMNSSGSTGLPKGVALPHRTACVRFSHARDPIFGNQIIPDTAILSVVPFHHGFGMFTTLGYLICGFRVVLMYRFEEELFLRSLQDYKIQSALLVPTLFSFFAKSTLIDKYDLSNLHEIASGGAPLSKEVGEAVAKRFHLPGIRQGYGLTETTSAILITPEGDDKPGAVGKVVPFFEAKVVDLDTGKTLGVNQRGELCVRGPMIMSGYVNNPEATNALIDKDG
notes: Expressed in HEK293T cells and used as cell lysate; also called Myc-SND1-NLuc; split-luc component

Tests used:
[1] = molecular target: T1, SND1 (endogenous, SCP28 breast cancer cell lysate) (human, UniProt Q7KZF4 2-910); assay: Co-IP competition, SCP28 lysate, anti-MTDH antibody, Western blot for SND1
T1 construct: Detected by Western blot after MTDH immunoprecipitation; also called Staphylococcal nuclease domain-containing 1
T1 sequence (looked up): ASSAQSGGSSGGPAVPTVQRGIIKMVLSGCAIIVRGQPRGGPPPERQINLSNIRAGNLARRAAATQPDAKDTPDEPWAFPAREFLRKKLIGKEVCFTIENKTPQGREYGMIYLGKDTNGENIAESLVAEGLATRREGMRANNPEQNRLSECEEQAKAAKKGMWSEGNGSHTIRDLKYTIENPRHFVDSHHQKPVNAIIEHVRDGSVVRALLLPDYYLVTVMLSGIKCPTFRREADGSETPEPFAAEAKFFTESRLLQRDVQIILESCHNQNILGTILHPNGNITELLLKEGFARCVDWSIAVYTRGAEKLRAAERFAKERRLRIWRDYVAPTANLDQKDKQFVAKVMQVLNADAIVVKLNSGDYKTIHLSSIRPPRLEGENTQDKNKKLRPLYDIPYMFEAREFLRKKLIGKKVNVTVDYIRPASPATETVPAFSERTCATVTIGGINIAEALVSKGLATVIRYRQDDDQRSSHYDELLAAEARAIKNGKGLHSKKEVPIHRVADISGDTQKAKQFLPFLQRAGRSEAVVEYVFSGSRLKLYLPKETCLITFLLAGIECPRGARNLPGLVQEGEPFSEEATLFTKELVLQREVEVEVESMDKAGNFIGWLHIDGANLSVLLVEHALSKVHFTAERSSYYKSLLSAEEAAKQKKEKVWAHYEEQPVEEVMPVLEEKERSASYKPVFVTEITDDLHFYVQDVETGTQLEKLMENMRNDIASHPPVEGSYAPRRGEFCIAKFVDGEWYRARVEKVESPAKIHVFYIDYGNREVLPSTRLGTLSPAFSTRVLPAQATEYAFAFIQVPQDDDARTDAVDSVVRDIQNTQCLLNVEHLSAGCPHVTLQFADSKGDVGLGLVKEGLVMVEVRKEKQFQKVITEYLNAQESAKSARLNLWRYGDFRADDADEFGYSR
Experimental: (§1) FIG. 10E, Schematic diagram of Co-IP based confirmation of MTDH-SND1 inhibitory compounds (left). SCP28 cells were lysed for IP assay.2 μg of MTDH antibody together with 500 μM of MTDH wild type (Pep-WT) or mutant (Pep-MT) peptides were added into each 1 ml of samples. Red star indicates wild type MTDH peptide competing off SND1 that binds to MTDH.
(§2) Co-immunoprecipitation assay (Co-IP), which is a commonly used standard test to determine protein-protein interaction, was next employed to validate the candidates. Lysates of breast cancer cell line SCP28, a single cell-derived subline from the MDA-MB-231 TNBC cell line²⁵, was immunoprecipitated with anti-MTDH antibody alone or together with inhibitors (FIG. 3F and FIG. 10E). The samples were then incubated with Protein-A/G beads to pull down MTDH, followed by Western blot analysis to detect SND1. In such co-TP experiment, MTDH-WT but not MTDH-MT peptide blocks MTDH-SND1 interaction (FIG. 10E). […] Using multiple screening and validation platforms, two classes of compounds, C26s and C32s, were obtained that inhibit MTDH-SND1 interaction.

SND1-NLuc [2] = molecular target: T2, SND1-NLuc; assay: split-luciferase assay (inhibition of SND1-NLuc/CLuc-MTDH interaction)
T2 chain: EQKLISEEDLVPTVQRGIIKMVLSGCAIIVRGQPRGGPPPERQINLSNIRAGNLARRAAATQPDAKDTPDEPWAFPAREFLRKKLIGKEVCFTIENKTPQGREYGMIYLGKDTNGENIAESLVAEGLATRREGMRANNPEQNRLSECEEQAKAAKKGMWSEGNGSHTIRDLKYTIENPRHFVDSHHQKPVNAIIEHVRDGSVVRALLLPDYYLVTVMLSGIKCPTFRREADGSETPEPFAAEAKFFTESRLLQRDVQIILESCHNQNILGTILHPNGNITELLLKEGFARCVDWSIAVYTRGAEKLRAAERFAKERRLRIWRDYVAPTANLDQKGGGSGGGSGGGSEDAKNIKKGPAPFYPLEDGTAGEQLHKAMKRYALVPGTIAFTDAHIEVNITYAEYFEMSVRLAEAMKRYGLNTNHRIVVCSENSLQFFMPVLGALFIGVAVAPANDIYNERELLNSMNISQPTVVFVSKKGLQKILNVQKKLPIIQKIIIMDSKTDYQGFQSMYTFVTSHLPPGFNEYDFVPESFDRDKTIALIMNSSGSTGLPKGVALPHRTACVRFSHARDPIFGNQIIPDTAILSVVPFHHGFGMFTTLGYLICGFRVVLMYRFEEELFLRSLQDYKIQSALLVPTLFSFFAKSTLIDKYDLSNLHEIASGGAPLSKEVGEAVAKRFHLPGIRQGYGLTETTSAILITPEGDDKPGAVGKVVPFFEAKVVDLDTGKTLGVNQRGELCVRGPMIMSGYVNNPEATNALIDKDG

SND1-NLuc [3] = molecular target: B4; assay: split-luciferase competition assay, 50 µM peptide, competitor of CLuc-MTDH
Experimental: (§3) Luciferase-based screening. Seed HEK293T cells on 3×15 cm dish at 18-24 hr before transfection with 7-8×10⁶ cells per dish targeting 70-80% confluence when start transfection. 20 μg of pCDNA3.1-SND1-NLuc, pCDNA3.1-CLuc-MTDH, or 2 μg of pCDNA3.1-NLuc-CLuc plasmids that described above were transfected to each dish. 72 hr after transfection the cells were lysed with 5 ml of luciferase lysis buffer (2 mM EDTA, 20 mM DTT, 10% glycerol, 1% Triton X-100, 25 mM Tris base, adjusted to pH7.8 with H₃PO₄) at 4° C. for 20 min. The protein lysates were centrifuged at 13,000 rpm for 10 min, and the supernatant were collected.
(§4) For small chemical compound screening, white, flat-bottom, solid 384-well plates were used. Compounds were added into each well as 0.1 μl of 10 mM DMSO solution (or same amount of DMSO, serve as control). The first and last columns were free, and MTDH wild type ([…]) or mutant ([…]) peptides were added as positive and negative controls right before screening. Same amount of MTDH-CLuc and SND1-NLuc were pre-mixed at 4° C. for 30 min to generate split-luc. 5 μl of split- or linked-luc was added into each well. […] The plates were incubated at 4° C. for 1 hr and luciferase activity at each well was measured.

SND1-NLuc [4] = molecular target: B4; assay: split-luciferase complementation, 293T cells
Experimental: as §3
(§5) For small chemical compound screening, white, flat-bottom, solid 384-well plates were used. Compounds were added into each well as 0.1 μl of 10 mM DMSO solution (or same amount of DMSO, serve as control). The first and last columns were free, and MTDH wild type ([…]) or mutant ([…]) peptides were added as positive and negative controls right before screening. Same amount of MTDH-CLuc and SND1-NLuc were pre-mixed at 4° C. for 30 min to generate split-luc. 5 μl of split- or linked-luc was added into each well. 15 μl of luciferase assay buffer (25 mM Glycylglycine pH 7.8, 15 mM K₃PO₄ pH 7.8, 15 mM MgSO₄, 4 mM EGTA, 2 mM ATP added just before use, 10 mM DTT added just before use and 1 mM D-Luciferin added just before use) was then added into each well to get a 20 μl reaction system with 50 μM of compounds (peptides) in each well. The plates were incubated at 4° C. for 1 hr and luciferase activity at each well was measured.

[5] = molecular target: T3, NLuc (firefly luciferase N-terminal fragment, 1-416aa) (UniProt P08659 1-416 = luciferase); assay: split-luciferase complementation, 293T cells
T3 construct: range 1-416; Fragment alone, without SND1
Experimental: as §3, §5

[6] = molecular target: T1, SND1 (endogenous, SCP28 breast cancer …); assay: Co-IP from SCP28 lysate with 2 µg MTDH antibody
Experimental: as §1, §2

[7] = molecular target: T4, CLuc (firefly luciferase C-terminal fragment, 398-550aa) (UniProt P08659 398-550 = luciferase); assay: split-luciferase complementation, 293T cells
T4 construct: Fragment alone, without MTDH
Experimental: as §3, §5

SND1-NLuc [8] = molecular target: B4; assay: split-luciferase competition assay, HEK293T lysates
Experimental: as §3, §4

B1: wild type MTDH (MTDH-WT) minimal peptide (peptide)
peptide: PNSDWNAPAEEWGNW
notes: also called MTDH-WT peptide; Pep-WT
[1]
  binding result: binds
SND1-NLuc [2]
  IC50: 1200 nM
SND1-NLuc [3]
  binding result: binds

B2: CLuc-MTDH (other)
chain: MSGYVNNPEATNALIDKDGWLHSGDIAYWDEDEHFFIVDRLKSLIKYKGYQVAPAELESILLQHPNIFDAGVAGLPDDDAGELPAAVVVLEHGKTMTEKEIVDYVASQVTTAKKLRGGVVFVDEVPKGLTGKLDARKIREILIKAKKGGKSKLGGGSGGGSSSADPNSDWNAPAEEWGNWVDEYPYDVPDYA
notes: Expressed in HEK293T cells and used as cell lysate; also called CLuc-MTDH-HA; MTDH-CLuc
SND1-NLuc [4]
  binding result: binds
[5]
  binding result: no binding

B3: MTDH (endogenous, SCP28 breast cancer cell lysate) (other, human, UniProt Q86UE4 1-582, looked up)
chain: MAARSWQDELAQQAEEGSARLREMLSVGLGFLRTELGLDLGLEPKRYPGWVILVGTGALGLLLLFLLGYGWAAACAGARKKRRSPPRKREEAAAVPAAAPDDLALLKNLRSEEQKKKNRKKLSEKPKPNGRTVEVAEGEAVRTPQSVTAKQPPEIDKKNEKSKKNKKKSKSDAKAVQNSSRHDGKEVDEGAWETKISHREKRQQRKRDKVLTDSGSLDSTIPGIENTITVTTEQLTTASFPVGSKKNKGDSHLNVQVSNFKSGKGDSTLQVSSGLNENLTVNGGGWNEKSVKLSSQISAGEEKWNSVSPASAGKRKTEPSAWSQDTGDANTNGKDWGRSWSDRSIFSGIGSTAEPVSQSTTSDYQWDVSRNQPYIDDEWSGLNGLSSADPNSDWNAPAEEWGNWVDEERASLLKSQEPIPDDQKVSDDDKEKGEGALPTGKSKKKKKKKKKQGEDNSTAQDTEELEKEIREDLPVNTSKTRPKQEKAFSLKTISTSDPAEVLVKNSQPIKTLPPATSTEPSVILSKSDSDKSSSQVPPILQETDKSKSNTKQNSVPPSQTKSETSWESPKQIKKKKKARRET
notes: Pulled down with anti-MTDH antibody and Protein-A/G beads; also called metadherin
[6]
  binding result: binds

## B4
[7]
  binding result: no binding

B5: mutant MTDH (MTDH-MT) peptide (peptide)
peptide: PNSDANAPAEEAGNW
notes: also called Pep-MT; MTDH mutant peptide
[1]
  binding result: no binding (tested: 500 µM)
SND1-NLuc [8]
  binding result: no binding (tested: 50 µM)
